Data set [1] concerns the molecule itself. The experiment in a line: SEC.
Data set [2] deals with the molecule itself. In words: SEC. This is another data set of the same source. (In general: Size exclusion chromatography separates by hydrodynamic size, large species first.)

Like-named read-outs stand apart in the source and are kept apart here.

B1: ^coreAFG3L2^E408Q (enzyme)
chain: not shown
Take B1: the stoichiometry N (usually the number of molecules, sites or subunits per partner or assembly) in data set [1] was found to be 6.

B2: ^coreAFG3L2^E575Q (enzyme)
chain: not shown
For B2, the “stoichiometry N” value in data set [2] amounted to 6.

The record behind these values is paper PMC6475807 (Biochemistry, 2018).
